According to the supplement of paper PMC7877785:
± gives the uncertainty stated by the source.

Experiment: self-splicing fitness, log relative to wild type (ln ratio); higher = more splicing; Tetrahymena group I intron in knt gene, E. coli kanamycin selection, DiMSum; sequences stand for … in CUCUCU…GGAGGGAAAAGUUAUCAGGCAUGCACCUGGUAGCUAGUCUUUAAACCAAUAGAUUGCAUCGGUUUAAAAGGCAAGACCGUCAAAUUGCGGGAAAGGGGUCAACAGCCGUUCAGUACCAAGUCUCAGGGGAAACUUUGAGAUGGCCUUGCAAAGGGUAUGGUAAUAAGCUGACGGACAUGGUCCUAACCACGCAGCCAAGUCCUAAGUCAACAGAUCUUCUGUUGAUAUGGAUGCAGUUCACAGACUAAAUGUCGGUCGGGGAAGAUGUAUUCUUCUCAUAAGAUAUAGUCGGACCUCUCCUUAAUGGGAGCUAGCGGAUGAAGUGAUGCAACACUGGAGCCGCUGGGAACUAAUUUGUAUGCGAAAGUAUAUUGAUUAGUUUUGGAGUACUCGUGGUCG
Summary of the method: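 DiMSum derived fitness as the error-weighted combination of fold changes across replicates, kanamycin versus no kanamycin, normalised to wild type. E. coli BL21(DE3) held the library, which randomised all eight P1ex-region intron nucleotides within the knt kanamycin-resistance gene on pET-22b(+). Six replicate transformations grew overnight at 37°C or 30°C on LB agar with or without 25 μg/mL kanamycin, also containing 100 μg/mL carbenicillin, 50 μM IPTG and 0.2% rhamnose, and pooled colonies were amplicon-sequenced on an Illumina HiSeq 2500.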

Sequence	self-splicing fitness (ln) (30 °C)	self-splicing fitness (ln) (37 °C)
CGAUAGCAAUAUUACGUAAU	-2.55 ± 0.15	-1.92 ± 0.15
CGAUAGCAAUAUUACGUACC		-1.56 ± 0.44
CGAUAGCAAUAUUACGUGAG	-0.997 ± 0.07	-0.771 ± 0.091
CGAUAGCAAUAUUACGUUAA	-3.59 ± 0.21	-1.15 ± 0.16
CGAUAGCAAUAUUACGUUAC	-3.47 ± 0.28	-2.17 ± 0.2
CGAUAGCAAUAUUACGUUAU	-3.93 ± 0.33	-1.61 ± 0.18
CGCAAGCAAUAUUACGAAAU	-3.48 ± 0.21	-1.86 ± 0.18
CGCAAGCAAUAUUACGAACA	-0.432 ± 0.1	0.252 ± 0.1
CGCAAGCAAUAUUACGAAUA	-3.27 ± 0.21	-2.4 ± 0.2
CGCAAGCAAUAUUACGACGA	-1.48 ± 0.11	-0.997 ± 0.11
CGCAAGCAAUAUUACGACUU		-2.07 ± 0.25
CGCAAGCAAUAUUACGAUCC	-1.71 ± 0.12	-1.36 ± 0.19
CGCAAGCAAUAUUACGAUCG	-1.19 ± 0.1	-0.342 ± 0.14
CGCAAGCAAUAUUACGCAUU	-4.11 ± 0.19	-3.12 ± 0.21
CGCAAGCAAUAUUACGCCUG	-1.96 ± 0.13	-2.52 ± 0.23
CGCAAGCAAUAUUACGCGGA	-2.93 ± 0.28	-2.41 ± 0.23
CGCAAGCAAUAUUACGCUCC	-2.06 ± 0.27	-1.11 ± 0.38
CGCAAGCAAUAUUACGGAAC	-3.07 ± 0.21	-2.87 ± 0.32
CGCAAGCAAUAUUACGGAGA	-3.09 ± 0.18	-2.54 ± 0.19
CGCAAGCAAUAUUACGGAUU	-4.84 ± 0.34	-1.5 ± 0.19
CGCAAGCAAUAUUACGGCGA	-1.91 ± 0.24	-0.653 ± 0.17
CGCAAGCAAUAUUACGGCUU	-2.5 ± 0.14	-2.28 ± 0.2
CGCAAGCAAUAUUACGGGCG	-4.43 ± 0.19	-2.76 ± 0.2
CGCAAGCAAUAUUACGGGGU	-4.04 ± 0.18	-1.33 ± 0.12

Sequence	self-splicing fitness (ln) (30 °C)	self-splicing fitness (ln) (37 °C)
CGCAAGCAAUAUUACGUAUU	-3.08 ± 0.21	-3.5 ± 0.35
CGCAAGCAAUAUUACGUCAU	-4.26 ± 0.24	-2.4 ± 0.17
CGCAAGCAAUAUUACGUCCG	-0.62 ± 0.12	0.53 ± 0.2
CGCAAGCAAUAUUACGUCUC	-3.36 ± 0.18	-1.49 ± 0.15
CGCAAGCAAUAUUACGUCUU	-4.05 ± 0.26	-3.12 ± 0.22
CGCAAGCAAUAUUACGUGGA	-3.37 ± 0.16	-1.6 ± 0.095
CGCAAGCAAUAUUACGUGUG	-4.31 ± 0.14	-2.56 ± 0.11
CGCAAGCAAUAUUACGUUGA	-2.6 ± 0.13	-2.02 ± 0.15
CGCCAGCAAUAUUACGAACG	-0.982 ± 0.097	0.0565 ± 0.12
CGCCAGCAAUAUUACGACAC	-2.92 ± 0.25	-1.65 ± 0.26
CGCCAGCAAUAUUACGACCG	-0.693 ± 0.083	-0.103 ± 0.12
CGCCAGCAAUAUUACGAGAA	-2.14 ± 0.42	-2.75 ± 0.38
CGCCAGCAAUAUUACGAGUG	-2.41 ± 0.07	-1.59 ± 0.11
CGCCAGCAAUAUUACGAUAC	-3.42 ± 0.22	-3.13 ± 0.24
CGCCAGCAAUAUUACGAUAU	-3.92 ± 0.22	-2.14 ± 0.2
CGCCAGCAAUAUUACGCCGC	-2.72 ± 0.21	-1.39 ± 0.39
CGCCAGCAAUAUUACGCUAG	-2.94 ± 0.16	-2.4 ± 0.23
CGCCAGCAAUAUUACGGACG	-4.63 ± 0.31	-2.95 ± 0.28
CGCCAGCAAUAUUACGGAUC	-1.24 ± 0.22	-1.38 ± 0.47
CGCCAGCAAUAUUACGGCUA	-0.576 ± 0.061	-0.172 ± 0.068
CGCCAGCAAUAUUACGGGCC	-3.13 ± 0.21	-1.72 ± 0.2
CGCCAGCAAUAUUACGGGGC	-4 ± 0.19	-2.55 ± 0.16
CGCCAGCAAUAUUACGGUCC	-0.387 ± 0.13	-0.161 ± 0.16
CGCCAGCAAUAUUACGGUGU	-2.27 ± 0.12	-2.84 ± 0.26
